In patent US20040138134A1 one finds % relative binding (cGMP, Biotrak EIA, peptide data, which are given here for six molecules.

Where no end group is shown, it is not given here.

The first test addresses natriuretic peptide receptor on C3H10T1/2 cells. In words: cell-based or functional assay.
Turning to CFGLKLDRIGSMSGLGC (not fully specified (bridges); ends and bridges not checked) [CNP 5-22 (17-mer, cyclic domain of CNP)], the % relative binding (cGMP, Biotrak EIA, peptide at 10^-6 M) was found to be 100%.

Another test shares this target. In words: cell-based or functional assay. The source holds these as a separate data set.
CHFGLKLDRIGSMAC [CNP variant SEQ ID NO:12] yielded a % relative binding (cGMP, Biotrak EIA, peptide at 10^-6 M) of 21.7%.

In turn, CFGLKLDRIGSMSGLGC (not fully specified (bridges); ends and bridges not checked) [CNP 5-22 (17-mer, cyclic domain of CNP)] returned a % relative binding (cGMP, Biotrak EIA, peptide at 10^-6 M) of 127%.

For CFGLKLDAIGSMSGLGC [CNP variant SEQ ID NO:8], the % relative binding (cGMP, Biotrak EIA, peptide at 10^-6 M) worked out at 18.4%.

Molecule CFGLKLDRAGSMSGLGC [CNP variant SEQ ID NO:9] registered a % relative binding (cGMP, Biotrak EIA, peptide at 10^-6 M) of 11.5%.

For the molecule CFGLKLARIGSMSGLGC [CNP variant SEQ ID NO:7], the % relative binding (cGMP, Biotrak EIA, peptide at 10^-6 M) came out at 49.1%.

CHFGLKLDRIGSMSC [CNP variant SEQ ID NO:11] gave a % relative binding (cGMP, Biotrak EIA, peptide at 10^-6 M) of 25.9%.
